From article PMC12182893, “Dimeric DNA Aptamers for the Spike Protein of SARS‐CoV‐2 Derived from a Structured Library with Dual Random Domains”
Like-named read-outs stand apart in the source and are kept apart here.

Tests used:
[1] = target: SARS-CoV-1 spike protein (SARS-CoV-1, UniProt P59594 14-1195); experiment: dot blot (filter binding); settings: protein: recombinant; chain copies: 3; label: radiolabel (32P)
[2] = target: Influenza hemagglutinin (HA) (influenza A/California/04/2009 (CAL 09), UniProt C3W5S1 18-530); experiment: dot blot (filter binding); settings: protein: recombinant; chain copies: 3; label: radiolabel (32P)
[3] = target: 229E RBD (seasonal coronavirus 229E, UniProt P15423 293-435); experiment: dot blot (filter binding); 10 nM protein; settings: protein: recombinant; label: radiolabel (32P); 3-way junction, predicted
[4] = target: HKU1 RBD (seasonal coronavirus HKU1, UniProt Q5MQD0 325-607); experiment: dot blot (filter binding); 10 nM protein; settings: protein: recombinant; label: radiolabel (32P); 3-way junction, predicted
[5] = target: NL63 RBD (seasonal coronavirus NL63, UniProt Q6Q1S2 481-616); experiment: dot blot (filter binding); 10 nM protein; settings: protein: recombinant; label: radiolabel (32P); 3-way junction, predicted
[6] = target: OC43 RBD (seasonal coronavirus OC43, UniProt P36334 333-607); experiment: dot blot (filter binding); 10 nM protein; settings: protein: recombinant; label: radiolabel (32P); 3-way junction, predicted
[7] = target: alpha-thrombin (human, UniProt P00734;P00734 328-363;364-622); settings: protein: commercial; copies: 1;1; label: radiolabel (32P); 3-way junction, predicted
[8] = target: alpha-thrombin (human, UniProt P00734;P00734 328-363;364-622); experiment: dot blot (filter binding)

Measured: binding result

B1: DRDA8 (structured_DNA)
DNA: TTACGTCAAGGTGTCACTCCTGTGGGTGGAATGGGGAAGGGAGTGTTTTTTTTTGTGAGATGTGTGGTGTGGAATGGGGAAGCATCTCTTTGGCGTG
no binding: [1] | [2] | [3] | [4] | [5] | [6] | [7]

B2: DRDA10 (structured_DNA)
DNA: TTACGTCAAGGTGTCACTCCTGTGGGTGGAATGGGGAAGGGAGTGTTTTTTTTTTCGGAGATGTGTGTGTGAAACAGTGGGAAGCATCTCTTTGGCGTG
no binding: [8]
